One test concerns the target HLA-B*48:01. Description: IEDB peptide-MHC binding, purified MHC/direct/fluorescence; filed as Kd, often an IC50 or EC50 that approximates it; ≥ and ≤ were set here for values at or beyond the usual limits of such assays. The settings on record: source organism: Mycobacterium tuberculosis.
In another test the target is HLA-B*40:01. The test is described as above.
For another test, the target named is HLA-B*08:01. The test is described as above.
In the next test the target is HLA-A*68:02. The description is as above. To be noted: source organism: Mycobacterium tuberculosis.
The next test deals with HLA-B*46:01. The description is as above. To be noted: source organism: Mycobacterium tuberculosis.
In a further test the target is HLA-B*27:05. The description is as above.
Another test deals with HLA-B*15:01. The description is as above.
A further test concerns the target HLA-B*07:02. Described as above.
Another test concerns the target HLA-B*15:17. The test is described as above. To be noted: source organism: Mycobacterium tuberculosis.
The next test has as its target HLA-B*08:02. The description is as above. To be noted: source organism: Mycobacterium tuberculosis str. Haarlem.
A further test addresses HLA-A*31:01. Described as above.
Another test deals with HLA-B*08:03. The test is described as above. To be noted: source organism: Mycobacterium tuberculosis str. Haarlem.
A further test concerns the target HLA-B*57:01. Described as above. To be noted: source organism: Mycobacterium tuberculosis.
The target of another test is HLA-A*69:01. Described as above.
The next test concerns the target HLA-A*26:02. The description is as above. To be noted: source organism: Mycobacterium tuberculosis str. Haarlem.
The target in a further test is HLA-A*01:01. Described as above.
The target of the next test is HLA-B*58:01. Described as above.
In the next test the target is HLA-A*11:01. The description is as above.
Test [1] has as its target HLA-A*02:01. Nature of the test: IEDB peptide-MHC binding, purified MHC/competitive/fluorescence; filed as Kd, often an IC50 or EC50 that approximates it; ≥ and ≤ were set here for values at or beyond the usual limits of such assays. The settings on record: source organism: Mycobacterium tuberculosis variant bovis BCG str. Pasteur 1173P2.
A further test deals with HLA-A*26:01. Description: IEDB peptide-MHC binding, purified MHC/direct/fluorescence; filed as Kd, often an IC50 or EC50 that approximates it; ≥ and ≤ were set here for values at or beyond the usual limits of such assays.
Test [2] has as its target HLA-A*02:01. The description is as above.
For a further test, the target named is HLA-A*24:03. The test is described as above.
The next test concerns the target HLA-A*03:01. Described as above.
The target in the next test is HLA-A*02:50. Description: IEDB peptide-MHC binding, purified MHC/competitive/fluorescence; filed as Kd, often an IC50 or EC50 that approximates it; ≥ and ≤ were set here for values at or beyond the usual limits of such assays.
For another test, the target named is HLA-B*44:02. Description: IEDB peptide-MHC binding, purified MHC/direct/fluorescence; filed as Kd, often an IC50 or EC50 that approximates it; ≥ and ≤ were set here for values at or beyond the usual limits of such assays. The settings on record: source organism: Yersinia pestis.
A further test addresses HLA-A*02:11. The test is described as above. To be noted: source organism: Burkholderia mallei ATCC 23344.
The target of a further test is HLA-C*04:01. Described as above.
The target of another test is HLA-B*15:02. Description: IEDB peptide-MHC binding, purified MHC/competitive/fluorescence; filed as Kd, often an IC50 or EC50 that approximates it; ≥ and ≤ were set here for values at or beyond the usual limits of such assays.
The target in the next test is HLA-A*23:01. Described as above. To be noted: source organism: Cryptosporidium parvum Iowa II.
A further test deals with HLA-B*35:01. Nature of the test: IEDB peptide-MHC binding, purified MHC/direct/fluorescence; filed as Kd, often an IC50 or EC50 that approximates it; ≥ and ≤ were set here for values at or beyond the usual limits of such assays. To be noted: source organism: Corynebacterium glutamicum.
Setting [3] is: source organism: Mycobacterium tuberculosis.
Where [4] appears, read: source organism: Haemophilus influenzae.
The mark [5] stands for this setting: source organism: Yersinia pestis.
[6] abbreviates: source organism: Burkholderia mallei.
The mark [7] stands for this setting: source organism: Corynebacterium efficiens.
[8] abbreviates: source organism: Corynebacterium glutamicum.

For KLVGIELPK, the Kd with HLA-B*48:01, with HLA-B*40:01 (setting [3]), with HLA-B*08:01 (source organism: Mycobacterium tuberculosis str. Haarlem), with HLA-A*68:02, with HLA-B*46:01 and in the test with HLA-B*27:05 (setting [3]) was ≥ 20 µM throughout. For the same sequence, the equilibrium dissociation constant (Kd) was ≥ 20 µM with HLA-B*15:01 (setting [3]); ≥ 20 µM with HLA-B*07:02 (setting [3]); ≥ 20 µM in the test with HLA-B*15:17; ≥ 20 µM in the test with HLA-B*08:02; 6.82 µM with HLA-A*31:01 (setting [3]); ≥ 20 µM with HLA-B*08:03. Moreover, the dissociation constant (Kd) with HLA-B*57:01 is ≥ 20 µM; with HLA-A*69:01 (setting [3]) it was ≥ 20 µM; with HLA-A*26:02, ≥ 20 µM; with HLA-A*01:01 (setting [3]) it was ≥ 20 µM; with HLA-B*58:01 (setting [3]), ≥ 20 µM; with HLA-A*11:01 (setting [3]), 0.0733 µM. For the same sequence, the Kd with HLA-A*02:01 [1] was ≥ 20 µM.
Regarding LIFPAFFLC, the Kd was ≥ 20 µM with HLA-B*40:01 (setting [4]); ≥ 20 µM with HLA-B*08:01 (setting [4]); ≥ 20 µM in the test with HLA-A*26:01 (setting [4]); ≥ 20 µM with HLA-B*27:05 (setting [4]); 5.1 µM with HLA-A*02:01 [2] (setting [4]); ≥ 20 µM with HLA-B*15:01 (setting [4]). The dissociation constant Kd in the test with HLA-B*07:02 (setting [4]) was ≥ 20 µM; in the test with HLA-A*31:01 (setting [4]) it was ≥ 20 µM; in the test with HLA-A*69:01 (setting [4]), ≥ 20 µM; with HLA-A*24:03 (setting [4]) it was ≥ 20 µM; with HLA-A*03:01 (setting [4]) it was ≥ 20 µM; with HLA-A*01:01 (setting [4]), 5.24 µM. Also, the equilibrium dissociation constant (Kd) with HLA-B*58:01 (setting [4]) was ≥ 10 µM; in the test with HLA-A*11:01 (setting [4]) it was ≥ 20 µM; in the test with HLA-A*02:50 (source organism: Haemophilus influenzae PittAA) it was 0.012 µM.
In the case of LLIDDSFSS, the dissociation constant (Kd) with HLA-B*40:01 (setting [5]) was ≥ 20 µM; with HLA-B*08:01 (setting [5]) it was ≥ 20 µM; in the test with HLA-A*26:01 (setting [5]) it was ≥ 20 µM; with HLA-B*27:05 (setting [5]) it was ≥ 20 µM; in the test with HLA-A*02:01 [2] (setting [5]), 0.65 µM; with HLA-B*15:01 (setting [5]) it was 1.89 µM. Besides, the Kd with HLA-B*44:02, with HLA-B*07:02 (setting [5]), with HLA-A*31:01 (setting [5]), with HLA-A*69:01 (setting [5]), with HLA-A*24:03 (setting [5]) and in the test with HLA-A*03:01 (setting [5]) was ≥ 20 µM each time. The equilibrium dissociation constant (Kd) in the test with HLA-A*01:01 (setting [5]) is ≥ 20 µM; in the test with HLA-B*58:01 (setting [5]) it was ≥ 20 µM; with HLA-A*11:01 (setting [5]), ≥ 20 µM; with HLA-A*02:50 (source organism: Yersinia pestis Nepal516), 0.0025 µM.
On to MQQAYQCIV, for which the Kd with HLA-A*02:01 [2] (setting [6]) stood at 0.0865 µM; in the test with HLA-A*02:11, 0.028 µM; with HLA-A*69:01 (setting [6]) it was 9.04 µM; with HLA-A*02:50 (source organism: Burkholderia mallei NCTC 10229), 0.0116 µM.
Consider MYTRNLLWL, for which the dissociation constant (Kd) with HLA-C*04:01 (source organism: Escherichia coli HS) was ≥ 20 µM; with HLA-A*24:03 (source organism: Escherichia coli), 0.0018 µM.
On to SLYDIITVM, for which the equilibrium dissociation constant (Kd) in the test with HLA-B*15:02 (source organism: Listeria monocytogenes) was ≥ 20 µM.
For the sequence TFMGMNVQF, the values for the Kd with HLA-C*04:01 (source organism: Cryptosporidium parvum Iowa II) and with HLA-A*23:01 were ≥ 20 µM and 0.0012 µM, respectively.
With VQLQEYDTY, the Kd with HLA-B*40:01 (setting [7]) is ≥ 20 µM; in the test with HLA-B*35:01, 0.383 µM; with HLA-B*08:01 (setting [7]), ≥ 20 µM; in the test with HLA-A*26:01 (setting [7]), ≥ 20 µM; with HLA-B*27:05 (setting [7]), ≥ 20 µM; in the test with HLA-A*02:01 [2] (setting [7]) it was ≥ 20 µM. For the same sequence, the Kd in the test with HLA-B*15:01 (setting [8]) is 0.199 µM; with HLA-B*07:02 (setting [7]), ≥ 20 µM; with HLA-A*31:01 (setting [7]), ≥ 20 µM; with HLA-A*69:01 (setting [7]), ≥ 20 µM; with HLA-A*03:01 (setting [7]), ≥ 20 µM; in the test with HLA-A*01:01 (setting [8]), ≥ 5 µM. Further, the Kd in the test with HLA-B*58:01 (setting [7]), with HLA-A*11:01 (setting [7]) and with HLA-B*15:02 (setting [7]) was ≥ 20 µM each time.

The values above are taken from the Immune Epitope Database (IEDB).
